B1: 带有化学发光区序列的纳米抗体1C5-HAP (other)
chain: QVQLQESGGGLVQAGGSLRLSCKASERTFSSYSMAWYRQAPGKKREFVASISWDDERTYYTDSVKGRFTISRPNAKNTVYLQMNSLKPEDTAVYYCAVGGLSDGLGPSYDYWGQGTQVTVSSGGGGSGGGGSGGGGSIIPVEEENPDFWNREAAEALGAAKKLQPAQTAAKNLIIFLGDGMGVSTVTAARILKGQKKDKLGPEIPLAMDRFPYVALSKTYNVDKHVPDSGATATAYLCGVKGNFQTIGLSAAARFNQCNTTRGNEVISVMNRAKKAGKSVGVVTTTRVQHASPAGTYAHTVNRNWYSDADVPASARQEGCQDIATQLISNMDIDVILGGGRKYMFRMGTPDPEYPDDYSQGGTRLDGKNLVQEWLAKRQGARYVWNRTELMQASLDPSVTHLMGLFEPGDMKYEIHRDSTLDPSLMEMTEAALRLLSRNPRGFFLFVEGGRIDHGHHESRAYRALTETIMFDDAIERAGQLTSEEDTLSLVTADHSHVFSFGGYPLRGSSIFGLAPGKARDRKAYTVLLYGNGPGYVLKDGARPDVTESESGSPEYRQQSAVPLDEETHAGEDVAVFARGPQAHLVHGVQEQTFIAHVMAFAACLEPYTACDLAPPAGTTD
notes: Expressed in 293 cells
B2: 纳米抗体1C5 (VHH)
VHH: QVQLQESGGGLVQAGGSLRLSCKASERTFSSYSMAWYRQAPGKKREFVASISWDDERTYYTDSVKGRFTISRPNAKNTVYLQMNSLKPEDTAVYYCAVGGLSDGLGPSYDYWGQGTQVTVSS

Tests used:
血清标本中的AFP抗原 = biological target: T1, 血清标本中的AFP抗原 (UniProt P02771 19-609); assay: double-antibody sandwich chemiluminescence assay, detection antibody
T1 construct: also called 质控血清AFP; 标准血清中的AFP
T1 sequence (looked up): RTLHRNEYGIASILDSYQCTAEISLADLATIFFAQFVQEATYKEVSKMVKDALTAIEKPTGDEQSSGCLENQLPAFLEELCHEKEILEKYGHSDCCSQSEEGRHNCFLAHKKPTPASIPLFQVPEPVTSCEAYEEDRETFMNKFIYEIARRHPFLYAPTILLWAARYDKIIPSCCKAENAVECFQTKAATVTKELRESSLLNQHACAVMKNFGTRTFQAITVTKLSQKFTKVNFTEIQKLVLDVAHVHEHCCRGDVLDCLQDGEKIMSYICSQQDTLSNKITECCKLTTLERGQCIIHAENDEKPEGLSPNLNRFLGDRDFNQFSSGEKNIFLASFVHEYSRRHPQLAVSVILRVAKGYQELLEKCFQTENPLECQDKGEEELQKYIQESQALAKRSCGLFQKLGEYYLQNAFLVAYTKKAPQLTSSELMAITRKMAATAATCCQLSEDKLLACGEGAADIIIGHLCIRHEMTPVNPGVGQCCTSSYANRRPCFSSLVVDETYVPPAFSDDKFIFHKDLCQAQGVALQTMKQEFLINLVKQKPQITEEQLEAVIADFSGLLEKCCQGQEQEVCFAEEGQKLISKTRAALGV

[1] = biological target: T2, 重组AFP抗原(爱必信生物，货号Abt-P-208，GenbankID:174) (UniProt P02771 19-609, limits assumed); assay: ELISA additivity test on coated AFP
T2 construct: Bought recombinant antigen; also called 甲胎蛋白; α-fetoprotein
T2 sequence (looked up): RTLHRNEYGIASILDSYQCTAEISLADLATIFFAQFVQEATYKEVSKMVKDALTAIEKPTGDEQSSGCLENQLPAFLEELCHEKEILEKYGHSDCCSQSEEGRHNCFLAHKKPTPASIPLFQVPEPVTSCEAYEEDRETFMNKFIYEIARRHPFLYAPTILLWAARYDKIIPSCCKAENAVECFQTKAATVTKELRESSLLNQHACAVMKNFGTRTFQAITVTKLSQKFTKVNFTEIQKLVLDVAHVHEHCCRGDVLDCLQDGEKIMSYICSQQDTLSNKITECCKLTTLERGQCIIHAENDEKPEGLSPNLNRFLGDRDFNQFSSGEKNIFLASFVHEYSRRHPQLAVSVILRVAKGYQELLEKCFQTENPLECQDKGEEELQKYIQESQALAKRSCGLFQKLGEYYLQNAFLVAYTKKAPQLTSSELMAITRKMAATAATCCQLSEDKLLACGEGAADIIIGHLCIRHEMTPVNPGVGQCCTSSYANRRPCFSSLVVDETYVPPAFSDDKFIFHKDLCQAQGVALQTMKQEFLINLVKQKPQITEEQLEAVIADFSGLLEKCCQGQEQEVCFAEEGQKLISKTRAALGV

| Binder | binding result (血清标本中的AFP抗原) | binding result [1] |
| --- | --- | --- |
| B1 | binds |  |
| B2 |  | binds |
